No end group written: not given here. *: point of attachment. diST = diST O-glycan, CC(=O)N[C@@H]1[C@@H](O[C@@H]2O[C@H](CO)[C@H](O)[C@H](O[C@]3(C(=O)O)C[C@H](O)[C@@H](NC(C)=O)[C@H]([C@H](O)[C@H](O)CO)O3)[C@H]2O)[C@@H](O)[C@@H](CO[C@]2(C(=O)O)C[C@H](O)[C@@H](NC(C)=O)[C@H]([C@H](O)[C@H](O)CO)O2)O[C@@H]1*; code T = T O-glycan (Galβ1-3GalNAc), CC(=O)N[C@@H]1[C@@H](O[C@@H]2O[C@H](CO)[C@H](O)[C@H](O)[C@H]2O)[C@@H](O)[C@@H](CO)O[C@@H]1*; ST = sialylated T O-glycan
T1: NPR-A receptor (UniProt P16066 33-1061, limits assumed)
T1 sequence (looked up): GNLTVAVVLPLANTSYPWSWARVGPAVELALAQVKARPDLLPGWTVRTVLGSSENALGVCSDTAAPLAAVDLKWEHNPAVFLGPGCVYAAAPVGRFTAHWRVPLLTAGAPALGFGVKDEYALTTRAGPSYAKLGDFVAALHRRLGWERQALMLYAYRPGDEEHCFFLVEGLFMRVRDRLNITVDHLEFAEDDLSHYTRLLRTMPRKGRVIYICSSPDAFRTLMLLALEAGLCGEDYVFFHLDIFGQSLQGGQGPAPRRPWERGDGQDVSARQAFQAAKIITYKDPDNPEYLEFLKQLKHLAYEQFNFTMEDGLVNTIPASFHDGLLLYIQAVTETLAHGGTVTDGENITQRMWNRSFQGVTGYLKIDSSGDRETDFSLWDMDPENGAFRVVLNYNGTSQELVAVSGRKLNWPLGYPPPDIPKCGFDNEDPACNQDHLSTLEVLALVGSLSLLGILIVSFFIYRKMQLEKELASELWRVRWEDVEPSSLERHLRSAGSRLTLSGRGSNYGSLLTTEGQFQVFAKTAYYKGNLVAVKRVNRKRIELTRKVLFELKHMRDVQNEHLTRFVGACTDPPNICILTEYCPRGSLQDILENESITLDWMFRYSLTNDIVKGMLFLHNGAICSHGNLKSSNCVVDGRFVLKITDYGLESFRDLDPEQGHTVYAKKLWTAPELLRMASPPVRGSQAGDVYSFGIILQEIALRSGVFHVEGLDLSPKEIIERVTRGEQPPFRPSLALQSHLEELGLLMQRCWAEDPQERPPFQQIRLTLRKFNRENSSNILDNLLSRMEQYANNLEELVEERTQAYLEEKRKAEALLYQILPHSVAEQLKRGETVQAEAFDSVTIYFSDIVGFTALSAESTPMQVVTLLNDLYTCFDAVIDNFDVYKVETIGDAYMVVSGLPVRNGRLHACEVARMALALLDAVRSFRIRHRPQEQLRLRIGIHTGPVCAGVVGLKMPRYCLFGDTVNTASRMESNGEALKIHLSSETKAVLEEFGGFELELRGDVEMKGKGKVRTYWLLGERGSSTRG

B1: ANP with T O-glycan at residue 25 (peptide)
peptide: SLRRSSCFGGRMDRIGAQSGLGCNS(code T)FRY
modifications: ends and bridges not checked
B2: ANP with T O-glycan at residue 19 (peptide)
peptide: SLRRSSCFGGRMDRIGAQS(code T)GLGCNSFRY
modifications: ends and bridges not checked
B3: ANP with diST O-glycan at residue 19 (peptide)
peptide: SLRRSSCFGGRMDRIGAQS(diST)GLGCNSFRY
modifications: not fully specified (bridges); ends and bridges not checked
B4: ANP with ST O-glycan at residue 25 (peptide)
peptide: SLRRSSCFGGRMDRIGAQSGLGCNS(ST)FRY
modifications: ends and bridges not checked
B5: ANP with one O-glycan (GalNAc/Tn) at residue 19 (peptide)
peptide: SLRRSSCFGGRMDRIGAQSGLGCNSFRY
modifications: not fully specified (residue 19); ends and bridges not checked
B6: ANP with one O-glycan (GalNAc/Tn) at residue 25 (peptide)
peptide: SLRRSSCFGGRMDRIGAQSGLGCNSFRY
modifications: not fully specified (residue 25); ends and bridges not checked
B7: ANP with diST O-glycan at residue 25 (peptide)
peptide: SLRRSSCFGGRMDRIGAQSGLGCNS(diST)FRY
modifications: not fully specified (bridges); ends and bridges not checked
B8: ANP with ST O-glycan at residue 19 (peptide)
peptide: SLRRSSCFGGRMDRIGAQS(ST)GLGCNSFRY
modifications: ends and bridges not checked

Legend:
[1] = system: male Sprague Dawley rats; experiment: Acute cardiovascular and renal actions of i.v. infusion in anesthetized rats; format: in vivo; conditions: rat
Source text: The protocol is outlined in FIG. 9A.
Rats were then subjected to vessel and bladder cannulation for peptide infusion, BP measurement, blood sampling and urine collection. A polyethylene (PE)-5G tube catheter was placed into the jugular vein for inulin, peptide intravenous infusion. The carotid artery was cannulated with a PE-50 tube catheter for BP measurement (Sonometrics, London, Ontario, Canada) and blood sampling. The bladder was accessed and cannulated with a PE-50 tube catheter for passive urine collection. After completion of the above procedural set up, a 45 min equilibration period was performed that included continuous IV inulin and saline infusion. After the 45 min equilibration period, baseline (Time==Q min) parameters were recorded and one blood sampling (0.7 ml) was performed. The inulin and saline infusion was replaced by a continuous intravenously (i.v.) infusion of equimolar ANP-Ser19/ST or ANP-Ser25/ST for 60 min. The infusion rate was weight adjusted and equals weight*0.7/6000 ml/min. After 60 min infusion (Time=60 min), another blood sampling (0.7 ml) was conducted. […] Urine was collected at the end of the infusion (Time=60 min) and the study (Time=90 min). Urinary sodium was measured with pHOx Ultra (Nova Biomedical, Waltham, Mass.). Urine flow (UV) and urinary sodium excretion (UNaV) were calculated as urine volume or sodium clearance per min, Inulin concentrations were measured with enthrone method and inulin clearance was used for GFR quantification. Urinary cGMP and ANP excretion rate was calculated based on raw values obtained in the urine and UV.

[2] = target: neprilysin (NEP) (Homo sapiens, UniProt P08473); experiment: In vitro degradation by neprilysin, MALDI-TOF time course; conditions: 37° C., MALDI-TOF
Experimental: (§1) Many peptide hormones are destined for endocrine circulation where they are rapidly degraded with half-lives reaching only a few minutes^6-8.
(§2) For enzymatic degradation assays using either NEP or DPP-IV (R&D systems, UK), an enzyme titration was carried out to ensure full degradation within one hour of reaction time.
(§3) MALDI-TOF-MS was performed on a Bruker Autoflex instrument (Bruker Daltonik GmbH, Bremen, Germany) by mixing the quenched aliquots with a saturated solution of α-Cyano-4-hydroxycinnamic acid in ACN/H2O/TFA (70:30:0.1) at a ratio 1:1 on a target steel plate and mass-spectra were acquired in linear mode.
Reactions were performed in 50 mM Tris, 0.05% Brij-35, pH 9 (Neprilysin), or 50 mM Tris, 20 mM NaCl, pH 7.5 (IDE) and incubated at 37° C.

[3] = target: dipeptidyl peptidase IV (DPP-IV) (Homo sapiens, UniProt P27487); experiment: In vitro degradation by DPP-IV, MALDI-TOF time course
Experimental: as §1, §2, §3

[4] = target: T1, NPR-A receptor; experiment: cell-based or functional assay
[5] = 600 pmol/kg/min i.v., 60 minutes infusion

Chain of dipeptidyl peptidase IV (DPP-IV) (P27487 whole entry): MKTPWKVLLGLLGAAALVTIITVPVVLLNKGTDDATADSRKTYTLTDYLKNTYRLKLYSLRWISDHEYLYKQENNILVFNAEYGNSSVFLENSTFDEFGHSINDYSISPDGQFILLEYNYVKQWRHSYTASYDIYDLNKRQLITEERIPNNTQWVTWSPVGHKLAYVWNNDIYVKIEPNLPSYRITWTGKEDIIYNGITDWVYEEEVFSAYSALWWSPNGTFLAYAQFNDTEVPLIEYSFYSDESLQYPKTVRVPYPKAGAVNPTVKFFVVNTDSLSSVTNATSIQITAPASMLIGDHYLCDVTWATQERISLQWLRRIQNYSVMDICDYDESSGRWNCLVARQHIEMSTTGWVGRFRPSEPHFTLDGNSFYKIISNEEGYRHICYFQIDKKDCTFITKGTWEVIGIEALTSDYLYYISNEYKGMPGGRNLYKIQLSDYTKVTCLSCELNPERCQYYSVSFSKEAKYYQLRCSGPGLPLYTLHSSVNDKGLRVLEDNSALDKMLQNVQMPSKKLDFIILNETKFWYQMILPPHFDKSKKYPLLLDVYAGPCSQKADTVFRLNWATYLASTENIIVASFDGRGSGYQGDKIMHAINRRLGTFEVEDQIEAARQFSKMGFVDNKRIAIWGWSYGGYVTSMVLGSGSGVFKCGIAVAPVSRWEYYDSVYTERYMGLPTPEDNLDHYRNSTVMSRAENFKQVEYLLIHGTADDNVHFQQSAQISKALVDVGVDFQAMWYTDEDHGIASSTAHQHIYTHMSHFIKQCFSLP
Chain of neprilysin (NEP) (P08473 whole entry): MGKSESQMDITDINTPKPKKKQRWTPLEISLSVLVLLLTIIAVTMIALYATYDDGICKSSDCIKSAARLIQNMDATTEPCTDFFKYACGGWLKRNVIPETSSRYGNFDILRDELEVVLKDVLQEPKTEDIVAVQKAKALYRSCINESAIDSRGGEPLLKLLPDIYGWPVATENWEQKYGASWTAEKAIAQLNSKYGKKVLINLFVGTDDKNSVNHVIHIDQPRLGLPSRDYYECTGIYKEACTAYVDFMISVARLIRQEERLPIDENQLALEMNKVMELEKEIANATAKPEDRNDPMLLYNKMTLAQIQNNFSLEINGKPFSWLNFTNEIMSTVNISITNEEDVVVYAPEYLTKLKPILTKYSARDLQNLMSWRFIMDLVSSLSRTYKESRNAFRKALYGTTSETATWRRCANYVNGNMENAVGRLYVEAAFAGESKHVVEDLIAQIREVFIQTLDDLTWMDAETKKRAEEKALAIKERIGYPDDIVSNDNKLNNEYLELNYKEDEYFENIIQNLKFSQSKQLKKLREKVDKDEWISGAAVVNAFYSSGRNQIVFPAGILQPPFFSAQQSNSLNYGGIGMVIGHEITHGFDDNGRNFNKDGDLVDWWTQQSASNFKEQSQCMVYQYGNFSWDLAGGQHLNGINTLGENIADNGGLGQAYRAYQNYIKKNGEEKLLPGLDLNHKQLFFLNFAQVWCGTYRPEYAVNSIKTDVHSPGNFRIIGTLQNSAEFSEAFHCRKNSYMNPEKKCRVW

Molecule	increase in efficacy, cGMP generated [4] [%]	potency, cGMP generated (HTRF) [4] [µM]	reduction in efficacy, cGMP generated [4] [%]	further results
CC[C@H](C)[C@@H]1NC(=O)[C@H](CCCNC(=N)N)NC(=O)[C@H](CC(=O)O)NC(=O)[C@H](CCSC)NC(=O)[C@H](CCCNC(=N)N)NC(=O)CNC(=O)CNC(=O)[C@H](Cc2ccccc2)NC(=O)[C@@H](NC(=O)[C@H](CO)NC(=O)[C@H](CO)NC(=O)[C@H](CCCNC(=N)N)NC(=O)[C@H](CCCNC(=N)N)NC(=O)[C@H](CC(C)C)NC(=O)[C@@H](N)CO)CSSC[C@@H](C(=O)N[C@@H](CC(N)=O)C(=O)N[C@@H](CO)C(=O)N[C@@H](Cc2ccccc2)C(=O)N[C@@H](CCCNC(=N)N)C(=O)N[C@@H](Cc2ccc(O)cc2)C(=O)O)NC(=O)CNC(=O)[C@H](CC(C)C)NC(=O)CNC(=O)[C@H](CO[C@H]2O[C@H](CO)[C@H](O)[C@H](O[C@@H]3O[C@H](CO)[C@H](O)[C@H](O[C@]4(C(=O)O)C[C@H](O)[C@@H](NC(C)=O)[C@H]([C@H](O)[C@H](O)CO)O4)[C@H]3O)[C@H]2NC(C)=O)NC(=O)[C@H](CCC(N)=O)NC(=O)[C@H](C)NC(=O)CNC1=O [ANP-Ser19/ST]	–	–	–	change in mean arterial pressure (MAP) over the infusion period [1, 5]: decrease; change in plasma cGMP over the infusion period [1, 5]: increase; MAP in the 30 minutes clearance period ([1]; after 60 min infusion): sustained or further reduced; effect on diuresis and natriuresis ([1]; i.v. infusion): did not result in increased diuresis nor natriuresis
CC[C@H](C)[C@H](NC(=O)[C@H](Cc1ccccc1)NC(=O)[C@H](CCC(=O)O)NC(=O)[C@H](CCCCN)NC(=O)[C@H](C)NC(=O)[C@H](C)NC(=O)[C@H](CCC(N)=O)NC(=O)CNC(=O)[C@H](CCC(=O)O)NC(=O)[C@H](CC(C)C)NC(=O)[C@H](Cc1ccc(O)cc1)NC(=O)[C@H](CO)NC(=O)[C@H](CO)NC(=O)[C@@H](NC(=O)[C@H](CC(=O)O)NC(=O)[C@H](CO)NC(=O)[C@@H](NC(=O)[C@H](Cc1ccccc1)NC(=O)[C@@H](NC(=O)CNC(=O)[C@H](CCC(=O)O)NC(=O)[C@H](C)NC(=O)[C@@H](N)Cc1c[nH]cn1)[C@@H](C)O)[C@@H](C)O[C@H]1O[C@H](CO)[C@H](O)[C@H](O[C@@H]2O[C@H](CO)[C@H](O)[C@H](O[C@]3(C(=O)O)C[C@H](O)[C@@H](NC(C)=O)[C@H]([C@H](O)[C@H](O)CO)O3)[C@H]2O)[C@H]1NC(C)=O)C(C)C)C(=O)N[C@@H](C)C(=O)N[C@@H](Cc1c[nH]c2ccccc12)C(=O)N[C@@H](CC(C)C)C(=O)N[C@H](C(=O)N[C@@H](CCCCN)C(=O)NCC(=O)N[C@@H](CCCNC(=N)N)C(N)=O)C(C)C [GLP-1-Thr7/ST]	–	–	–	remained (completely) intact after incubation with NEP [2]: 60 min; remained fully intact after/until incubation with DPP-IV [3]: 120 min
CC[C@H](C)[C@H](NC(=O)[C@H](CO)NC(=O)[C@H](CC(N)=O)NC(=O)[C@H](CC(C)C)NC(=O)[C@H](Cc1ccc(O)cc1)NC(=O)[C@H](CCCCN)NC(=O)[C@H](CCCCN)NC(=O)[C@@H](NC(=O)[C@H](C)NC(=O)[C@H](CCSC)NC(=O)[C@H](CCC(N)=O)NC(=O)[C@H](CCCCN)NC(=O)[C@H](CCCNC(=N)N)NC(=O)[C@H](CC(C)C)NC(=O)[C@H](CCCNC(=N)N)NC(=O)[C@@H](NC(=O)[C@H](Cc1ccc(O)cc1)NC(=O)[C@H](CC(N)=O)NC(=O)[C@H](CC(=O)O)NC(=O)[C@@H](NC(=O)[C@H](Cc1ccccc1)NC(=O)[C@@H](NC(=O)[C@H](C)NC(=O)[C@H](CC(=O)O)NC(=O)[C@H](CO)NC(=O)[C@@H](N)Cc1c[nH]cn1)C(C)C)[C@@H](C)O[C@H]1O[C@H](CO)[C@H](O)[C@H](O[C@@H]2O[C@H](CO)[C@H](O)[C@H](O[C@]3(C(=O)O)C[C@H](O)[C@@H](NC(C)=O)[C@H]([C@H](O)[C@H](O)CO)O3)[C@H]2O)[C@H]1NC(C)=O)[C@@H](C)O)C(C)C)C(=O)N[C@@H](CC(C)C)C(=O)N[C@@H](CC(N)=O)C(N)=O [VIP-Thr7/ST]	–	–	–	remained (completely) intact after incubation with NEP [2]: 60 min; partially intact after incubation with DPP-IV [3]: 60 min; remained fully intact after/until incubation with DPP-IV [3]: 30 min
B1	~20	0.265	–	–
B2	–	0.16	~20	–
B3	–	–	~20	–
B4	~20	0.717	–	–
B5	–	–	~20	–
B6	~20	–	–	–
B7	~20	–	–	–
B8	–	0.296	~20	–
